The values that follow come from patent US9994881B2, “Functionalized carboxylic acids and alcohols by reverse fatty acid oxidation in engineered microbes” (William Marsh Rice University, priority 2011, dated 2018).

Marks after values point to notes of the source that are not given here.

Data set [1] has as its target T1, E. coli YciA (acyl-CoA thioesterase, NP_415769.1), wild type (Escherichia coli, UniProt P0A8Z0).
T1 sequence (P0A8Z0 1-132): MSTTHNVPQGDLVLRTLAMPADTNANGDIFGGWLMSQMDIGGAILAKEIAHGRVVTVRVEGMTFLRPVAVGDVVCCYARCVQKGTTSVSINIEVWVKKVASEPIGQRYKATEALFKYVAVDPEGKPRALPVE
The experiment in a line: Thioesterase kinetics (production of TNB at 412 nm). As to conditions: pH 7.5, 200 mM KCl, DTNB, 25° C.
Method: Cells were lysed using Bacterial Protein Extraction Reagent (B-PER) (Thermo Scientific, Waltham, Mass.) as per the prescribed protocol in order to obtain the supernatant containing the active enzymes.
For kinetic characterization, an appropriate amount of enzyme was established by checking linear range near predicted KM values. Then, the rates were measured for a range of substrates in order to establish kcat and KM. In the cases of FadB for the crotonase reaction and FadA in the “forward” thiolase reaction coupled with HBD, substrate saturation could not be established, as such, the kcat/KM for the reaction was determined by dividing the linear slope of Velocity vs. [Substrate] by the amount of enzyme used in the assays. For reactions that could be saturated, Velocity vs. [Substrate] was fitted by the EnzKIN Matlab module (mathworks.com/matlabcentral/fileexchange/26653) to establish Vmax and KM.
Thioesterase activity was monitored by following the production of TNB at 412 nm (ε=4.3 mM^−1 cm^−1)^30. Reactions were carried out in the presence of 100 mM Tris pH 7.5, 200 mM KCl, 25 mM DTNB and 200 μM of the ‘-CoA’ substrate in a volume of 200 μL at 25° C.

Data set [2] in a line: forward thiolase assay (biosynthetic direction), coupled with caHBD. The data set is classed as biochemical. As to conditions: substrate Acetyl-CoA; supernatant fraction; AtoB expressed from pCA24N, FadA from pUCBB-ntH6. As for the experimental part: (§1) Cultures for enzymatic assays were grown overnight in 100 mL of LB media at 37° C. in 250 mL baffled flasks (Wheaton Industries, Inc., Millville, N.J.) in E. coli BL21 (DE3) cells induced with either 1 mM IPTG (pCA24N, pTrcHis2A) or 1 mM Arabinose (pUCBB-pBAD) at an OD600˜0.6, or expressed constitutively (pUCBB-ntH6). Reactions were monitored on either a Synergy HT plate reader (BioTek Instruments, Inc., Winooski, Vt.) at 25° C. (for reactions monitored at 300 nm or higher) or in a Biomate 5 Spectrophotometer (Thermo Scientific, Waltham, Mass.) for reactions at 263 nm. […]
(§2) For kinetic characterization, his-tagged proteins of AtoB, FadA, FadB, caHBD, egTER were purified from the B-PER supernatant fractions using Talon Metal Affinity Resin (Clontech Laboratories, Inc., Mountain View, Calif.) using gravity purification. […] Enzyme concentration was established by measuring the absorbance at […] and extinction coefficients predicted for each enzyme by the ProtParam program (web.expasy.org/protparam/).
(§3) For kinetic characterization, an appropriate amount of enzyme was established by checking linear range near predicted KM values. Then, the rates were measured for a range of substrates in order to establish kcat and KM. […]

Data set [3] in a line: thiolase activity in the reverse direction (loss of acetoacetyl-CoA at 303 nm). The format is biochemical. To be noted: substrate Acetoacetyl-CoA; supernatant fraction; AtoB expressed from pCA24N, FadA from pUCBB-ntH6. On the procedure:
as §1, §2, §3

Usually kcat stands for the maximal rate divided by the concentration of active sites. In the case of `CC(=O)SCCNC(=O)CCNC(=O)[C@H](O)C(C)(C)COP(=O)(O)OP(=O)(O)OC[C@H]1O[C@@H](n2cnc3c(N)ncnc32)[C@H](O)[C@@H]1OP(=O)(O)O` [Acetyl-CoA], the kcat in data set [1] worked out at 6.9 ± 0.1 s⁻¹. As to “AtoB: E. coli thiolase with higher specificity for short-chain acyl-CoA molecules”, the “Specific Activity” value in data set [2] is 0.919 ± 0.002^b μmol/mg/min; in data set [3], 0.36 ± 0.05^b μmol/mg/min.
